Target: HsiC2Δ1–30, bacterial two-hybrid fusion (P. aeruginosa PAO1)
Assay: two-hybrid; bacterial two-hybrid (BTH): T25 and T18 fusions of B. pertussis adenylate cyclase co-transformed in E. coli DHM1; spots on MacConkey maltose and X-gal LB agar, 30 °C, at least 48 h; β-galactosidase activity in Miller units

Question: For “ClpV2, full length, bacterial two-hybrid fusion (enzyme)”, which fold reduction of binding against full-length HsiC2 is on record?
Answer: 10 fold
